The test system of data set [1] is HeLa Kyoto. The experiment in a line: thermal stability score vs G1/S (z-score of summed log2 fold changes over temperatures); higher = more thermally stable than in G1/S.
Data set [2] concerns HeLa Kyoto. The experiment in a line: melting temperature (median over replicates), in situ; higher = more thermally stable.
The subject of data set [3] is HeLa Kyoto. The experiment in a line: solubility in G1/S (NP-40 vs SDS abundance) (log2 ratio); higher = more soluble. To be noted: cell cycle stage: G1/S.
Data set [4] relates to HeLa Kyoto. The experiment in a line: solubility change mitosis vs G1/S (difference of NP-40 vs SDS log2 ratios) (log2 ratio difference); higher = more soluble in mitosis.
Where [5] appears, read: cell cycle stage: early G1 (4.5 h after nocodazole release).
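Throughout, for melting temperature (median over replicates), in situ: HeLa Kyoto cells synchronized by double thymidine or nocodazole block, proteins quantified by TMT10plex mass spectrometry, three independent biological replicates.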
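Throughout, for solubility change mitosis vs G1/S (difference of NP-40 vs SDS log2 ratios): synchronized HeLa Kyoto cells (double thymidine block for G1/S, nocodazole release for mitosis), protein amounts in NP-40 versus SDS lysates quantified by mass spectrometry, three biological replicates.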
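Throughout, for solubility in G1/S (NP-40 vs SDS abundance): HeLa Kyoto cells arrested at G1/S by double thymidine block, proteins quantified by TMT10plex mass spectrometry in mild NP-40 versus SDS extracts, three biological replicates.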
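Throughout, for thermal stability score vs G1/S (z-score of summed log2 fold changes over temperatures): synchronized HeLa Kyoto cells, proteins quantified by TMT10plex mass spectrometry, three biological replicates, mitosis taken 0.5 h after nocodazole release, G1/S directly after double thymidine block.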

Turning to “MWRLPGARAALRVIRTAVEKLSRAEAGSQTAAGAMERAVVRCVPSEPKLSLSFALADGSHKNMQRDQSEPLGRVLSRIATNALKGHAKAAAAKKSRKSRPNASGGAACSGPGPEPAVFCEPVVKLYYREEAVAEDVLNVDAWQDGAVLQIGDVKYKVERNPPAFTELQLPRYIMAGFPVCPKLSLEFGDPASSLFRWYKEAKPGAAEPEVGVPSSLSPSSPSSSWTETDVEERVYTPSNADIGLRLKLHCTPGDGQRFGHSRELESVCVVEAGPGTCTFDHRHLYTKKVTEDALIRTVSYNILADTYAQTEFSRTVLYPYCAPYALELDYRQNLIQKELTGYNADVICLQEVDRAVFSDSLVPALEAFGLEGVFRIKQHEGLATFYRKSKFSLLSQHDISFYEALESDPLHKELLEKLVLYPSAQEKVLQRSSVLQVSVLQSTKDSSKRICVANTHLYWHPKGGYIRLIQMAVALAHIRHVSCDLYPGIPVIFCGDFNSTPSTGMYHFVINGSIPEDHEDWASNGEEERCNMSLTHFFKLKSACGEPAYTNYVGGFHGCLDYIFIDLNALEVEQVIPLPSHEEVTTHQALPSVSHPSDHIALVCDLKWK [PDE12]”, the thermal stability score in data set [1] (setting [5]) was -1.65; in data set [1] (cell cycle stage: mitosis), -1.58. Besides, the melting temperature in data set [2] (cell cycle stage: G1/S) amounted to 52.1 °C; in data set [2] (cell cycle stage: mitosis), 52.3 °C. In addition, the “solubility in G1/S (log2)” value in data set [3] is 0.0541. In addition, in data set [4], the “solubility change mitosis (log2)” value was -0.171.
Turning to “MGRRSRGRRLQQQQRPEDAEDGAEGGGKRGEAGWEGGYPEIVKENKLFEHYYQELKIVPEGEWGQFMDALREPLPATLRITGYKSHAKEILHCLKNKYFKELEDLEVDGQKVEVPQPLSWYPEELAWHTNLSRKILRKSPHLEKFHQFLVSETESGNISRQEAVSMIPPLLLNVRPHHKILDMCAAPGSKTTQLIEMLHADMNVPFPEGFVIANDVDNKRCYLLVHQAKRLSSPCIMVVNHDASSIPRLQIDVDGRKEILFYDRILCDVPCSGDGTMRKNIDVWKKWTTLNSLQLHGLQLRIATRGAEQLAEGGRMVYSTCSLNPIEDEAVIASLLEKSEGALELADVSNELPGLKWMPGITQWKVMTKDGQWFTDWDAVPHSRHTQIRPTMFPPKDPEKLQAMHLERCLRILPHHQNTGGFFVAVLVKKSSMPWNKRQPKLQGKSAETRESTQLSPADLTEGKPTDPSKLESPSFTGTGDTEIAHATEDLENNGSKKDGVCGPPPSKKMKLFGFKEDPFVFIPEDDPLFPPIEKFYALDPSFPRMNLLTRTTEGKKRQLYMVSKELRNVLLNNSEKMKVINTGIKVWCRNNSGEEFDCAFRLAQEGIYTLYPFINSRIITVSMEDVKILLTQENPFFRKLSSETYSQAKDLAKGSIVLKYEPDSANPDALQCPIVLCGWRGKASIRTFVPKNERLHYLRMMGLEVLGEKKKEGVILTNESAASTGQPDNDVTEGQRAGEPNSPDAEEANSPDVTAGCDPAGVHPPR [NSUN2]”, the thermal stability score in data set [1] (setting [5]) was 5.62; in data set [1] (cell cycle stage: mitosis), 11.8. The melting temperature is 46.6 °C in data set [2] (cell cycle stage: G1/S) and 49.2 °C in data set [2] (cell cycle stage: mitosis). In addition, the “solubility in G1/S (log2)” value in data set [3] was 0.0447. Moreover, the “solubility change mitosis (log2)” value in data set [4] is -0.00496.
Regarding SPEN, the thermal stability score was 1.63 in data set [1] (setting [5]) and 4.49 in data set [1] (cell cycle stage: mitosis). Further, the results for the melting temperature in data set [2] (cell cycle stage: G1/S) and in data set [2] (cell cycle stage: mitosis) were 49 °C and 50.4 °C, respectively. In addition, the “solubility in G1/S (log2)” value in data set [3] was -0.619. Besides, in data set [4], the “solubility change mitosis (log2)” value is 0.433.
On to “MDLRVGQRPPVEPPPEPTLLALQRPQRLHHHLFLAGLQQQRSVEPMRLSMDTPMPELQVGPQEQELRQLLHKDKSKRSAVASSVVKQKLAEVILKKQQAALERTVHPNSPGIPYRTLEPLETEGATRSMLSSFLPPVPSLPSDPPEHFPLRKTVSEPNLKLRYKPKKSLERRKNPLLRKESAPPSLRRRPAETLGDSSPSSSSTPASGCSSPNDSEHGPNPILGSEALLGQRLRLQETSVAPFALPTVSLLPAITLGLPAPARADSDRRTHPTLGPRGPILGSPHTPLFLPHGLEPEAGGTLPSRLQPILLLDPSGSHAPLLTVPGLGPLPFHFAQSLMTTERLSGSGLHWPLSRTRSEPLPPSATAPPPPGPMQPRLEQLKTHVQVIKRSAKPSEKPRLRQIPSAEDLETDGGGPGQVVDDGLEHRELGHGQPEARGPAPLQQHPQVLLWEQQRLAGRLPRGSTGDTVLLPLAQGGHRPLSRAQSSPAAPASLSAPEPASQARVLSSSETPARTLPFTTGLIYDSVMLKHQCSCGDNSRHPEHAGRIQSIWSRLQERGLRSQCECLRGRKASLEELQSVHSERHVLLYGTNPLSRLKLDNGKLAGLLAQRMFVMLPCGGVGVDTDTIWNELHSSNAARWAAGSVTDLAFKVASRELKNGFAVVRPPGHHADHSTAMGFCFFNSVAIACRQLQQQSKASKILIVDWDVHHGNGTQQTFYQDPSVLYISLHRHDDGNFFPGSGAVDEVGAGSGEGFNVNVAWAGGLDPPMGDPEYLAAFRIVVMPIAREFSPDLVLVSAGFDAAEGHPAPLGGYHVSAKCFGYMTQQLMNLAGGAVVLALEGGHDLTAICDASEACVAALLGNRVDPLSEEGWKQKPNLNAIRSLEAVIRVHSKYWGCMQRLASCPDSWVPRVPGADKEEVEAVTALASLSVGILAEDRPSEQLVEEEEPMNL [HDAC7]”, for which the thermal stability score in data set [1] (setting [5]) is 0.178; in data set [1] (cell cycle stage: mitosis), -0.224. In addition, the melting temperature in data set [2] (cell cycle stage: G1/S) was determined as 53 °C; in data set [2] (cell cycle stage: mitosis), 52.3 °C. In addition, the “solubility in G1/S (log2)” value in data set [3] is 0.129. Moreover, the “solubility change mitosis (log2)” value in data set [4] turned out to be 0.0342.
“MRALRAGLTLASGAGLGAVVEGWRRRREDARAAPGLLGRLPVLPVAAAAELPPVPGGPRGPGELAKYGLPGLAQLKSRESYVLCYDPRTRGALWVVEQLRPERLRGDGDRRECDFREDDSVHAYHRATNADYRGSGFDRGHLAAAANHRWSQKAMDDTFYLSNVAPQVPHLNQNAWNNLEKYSRSLTRSYQNVYVCTGPLFLPRTEADGKSYVKYQVIGKNHVAVPTHFFKVLILEAAGGQIELRTYVMPNAPVDEAIPLERFLVPIESIERASGLLFVPNILARAGSLKAITAGSK [ENDOG]”: the thermal stability score in data set [1] (setting [5]) amounted to 1.54; in data set [1] (cell cycle stage: mitosis) it was 0.994. Besides, the melting temperature in data set [2] (cell cycle stage: G1/S) was found to be 51.8 °C. The “solubility in G1/S (log2)” value in data set [3] is 0.34. For the same substance, in data set [4], the “solubility change mitosis (log2)” value is 0.0884.

For the origin of these results see the supplement of paper PMC5998384.
